# Test results reported in the supplement of paper PMC10567573.
# ± gives the standard deviation.
# Assay: protein stability index of a GFP-peptide fusion (GPS, HEK-293T) (PSI 1-6); higher = more stable
# Details: c terminus: a fixed tail appended
# 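Also: 24-mer peptide tiles fused after GFP, lentivirally expressed, FACS-sorted into six equal bins by GFP/DsRed ratio, decoded by Illumina sequencing, PSI is the read-weighted mean bin number.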
Sequence,protein stability index (treatment: DMSO),"protein stability index (treatment: MLN4924 1 uM, 8 h)"
EEDLVLTCEDDEDEELGGSSRVPV [ZBTB22],5.67 ± 0.24,5.6 ± 0.21
NIMNKEAFMNQEITKAFHVRKANR [RHOBTB1],3.35 ± 0.18,3.45 ± 0.34
IQFWNSRQSLEGLSVRSVFFGVFQ [CLPTM1],2.65 ± 0.46,2.79 ± 0.91
LLGGDLRYHLQQNVHFKEETVKLF [STK32A],2.36 ± 0.41,2.6 ± 0.27
IQVSLYCQEWYARRHCPLPQATFW [SOAT2],2.87 ± 0.38,3.07 ± 0.83
GIIRCPDGISIPELREACDYLCIS [BTBD10],2.36 ± 0.35,2.5 ± 0.2
ALSQLICFCRESRYMDQWVPVINL [GADD45A],2.95 ± 0.45,3.06 ± 0.76
ENIEVKEGGLYFERRPVAQSTDGA [SPSB2],4.55 ± 0.27,4.66 ± 0.18
LAKDFIRRLLVKDPKRRMTIAQSL [DAPK3],2.96 ± 0.3,2.7 ± 0.051
EPSHSVKVHTVPKPGKGADLSKPP [ATE1],4.96 ± 0.22,4.96 ± 0.27
LASYLDRVRSLETENRRLESKIRE [KRT18],3.58 ± 0.34,3.7 ± 0.11
NDPEKNFLTTAIRPHGIFGPRDPQ [NSDHL],4.24 ± 0.3,4.24 ± 0.29
EEADFLSAETGSPRLTMHYPCLEK [IRX6],4.49 ± 0.19,4.56 ± 0.065
EICLWGRHIFMGYLESETETTEAI [ACSBG2],2.55 ± 0.072,3.05 ± 0.29
CSWKGATKQRIQDQKVPYIFRDNQ [CHIT1],2.87 ± 0.24,3.14 ± 0.62
MEHALREKAKAFWAMRRSYEAIAK [TRIM35],2.46 ± 0.12,2.59 ± 0.45
KMAHVIAACLYLVCRTEGTPHMLL [BRF1],3.26 ± 0.64,2.84 ± 0.42
NTLQTYIRCRHPPPGSHLLYAKMI [VDR],2.21 ± 0.15,2.33 ± 0.25
FGELRLGKNLYTNEYVAIKLEPIK [CSNK1G1],3.02 ± 0.94,2.04 ± 0.47
STWALYGRAVDQDKVLRFAQQIRL [MYORG],2.29 ± 0.23,2.25 ± 0.33
DLFDLCDRTFTLKTVLMIAIQLLS [CSNK1G1],2.6 ± 0.43,2.33 ± 0.42
EVVVAESELQKELKKVKTAHSNDG [DPCD],5.18 ± 0.25,5.25 ± 0.32
SQSHCYRTCFSPASDGSDFTFLRP [PCDHGC5],2.15 ± 0.26,2.09 ± 0.16

Sequence,protein stability index (treatment: DMSO),"protein stability index (treatment: MLN4924 1 uM, 8 h)"
SNNITLREDQLDTVLAVLEDSSRD [INTS4],5.25 ± 0.18,5.28 ± 0.16
AAKTLPGGAGKGRTPSAFPQTPAA [EHMT1],4.26 ± 0.33,4.39 ± 0.085
PKTSGTRATSLGRPEEEEDELAHR [CPOX],5.42 ± 0.36,5.42 ± 0.19
LSPPEQAAQPMQPLPESLASLHPS [PLAGL1],5.12 ± 0.16,4.93 ± 0.31
MERPLCSHLCSCLAMLALLSPLSL [LOXL2],3.16 ± 0.19,3.46 ± 0.36
MDSFKVVLEGPAPWGFRLQGGKDF [PDLIM7],2.1 ± 0.24,2.52 ± 0.23
DLLPVWLLEDMRASEAFHWDERGR [ANKRD9],2.52 ± 0.5,2.87 ± 0.45
DFCEPSFVTGNCLEISPDCSQYDR [PCMTD2],4.38 ± 0.32,4.4 ± 0.22
EEELIRIFQEQQKKWQQYRSVRRE [FAM9B],3.92 ± 0.33,4.07 ± 0.49
EHIADALRAIDFGTDEEEEEFIEE [TRIM63],5.34 ± 0.2,5.36 ± 0.32
PPSSPRTLRLEKLGHPALSQEEGK [PPFIA4],5 ± 0.15,5.19 ± 0.31
FPPDLVFRADQRSGPRQLLTLYNP [MOSPD3],3.13 ± 0.67,2.93 ± 0.29
SASSSTTCCESTQRSVSDVASGST [IRX6],5.12 ± 0.26,5.26 ± 0.11
DREGYTSFWNDCISSGLRGCMLIE [GOLPH3],2.08 ± 0.28,2.31 ± 0.19
SSSDLVMRARDSVYHIECFRCSVC [ISL2],2.5 ± 0.33,2.72 ± 0.51
LSWLVWLLLLLLASLLPSARLASP [ADAMTS4],2.99 ± 0.65,2.5 ± 0.3
PTSPVYRGSSSGPSSPARVSTTPR [MTUS2],5 ± 0.25,4.95 ± 0.33
EESRISVPVHSFASLNIKTTVPEV [PRPH],4.05 ± 0.35,3.98 ± 0.39
EALGHMFMYFLRGSLPWQGLKADT [CSNK1G1],3.63 ± 0.22,3.19 ± 0.4
YDPKTNQWSSDVAPTSTCRTSVGV [KLHL20],2.86 ± 0.44,3.04 ± 0.19
RALNSVPVIIAAVGTRQNEELPCT [RHOBTB3],3.39 ± 0.24,3.46 ± 0.16
RGLGSQASTVTEIVKQQDPLVYKA [ACSBG2],4.32 ± 0.041,4.31 ± 0.52
